Consider two molecules from PMC12561182, “Gal3‐CaN‐Smurf1 Complex Sequestrates FLCN‐FNIPs to Facilitate TFEB Activation in Response to Endomembrane Damage” (Advanced Science, 2025).

In the test the target is T1, His-Flag-Smurf1 (UniProt Q9HCE7-2 1-731).
T1 construct: Smurf1; printed length 731 (HECT domain residues 374–731, catalytic C699); also called SMAD Specific E3 Ubiquitin Protein Ligase 1; source: E. coli, purified
As to the kind of experiment: pull-down; GST pull-down: GST fusion and His-tagged partner both purified from E. coli; 4 °C overnight, washed with PBS. As to conditions: both partners purified.

T1 sequence (Q9HCE7 other isoform, or with tags, fused parts or gaps): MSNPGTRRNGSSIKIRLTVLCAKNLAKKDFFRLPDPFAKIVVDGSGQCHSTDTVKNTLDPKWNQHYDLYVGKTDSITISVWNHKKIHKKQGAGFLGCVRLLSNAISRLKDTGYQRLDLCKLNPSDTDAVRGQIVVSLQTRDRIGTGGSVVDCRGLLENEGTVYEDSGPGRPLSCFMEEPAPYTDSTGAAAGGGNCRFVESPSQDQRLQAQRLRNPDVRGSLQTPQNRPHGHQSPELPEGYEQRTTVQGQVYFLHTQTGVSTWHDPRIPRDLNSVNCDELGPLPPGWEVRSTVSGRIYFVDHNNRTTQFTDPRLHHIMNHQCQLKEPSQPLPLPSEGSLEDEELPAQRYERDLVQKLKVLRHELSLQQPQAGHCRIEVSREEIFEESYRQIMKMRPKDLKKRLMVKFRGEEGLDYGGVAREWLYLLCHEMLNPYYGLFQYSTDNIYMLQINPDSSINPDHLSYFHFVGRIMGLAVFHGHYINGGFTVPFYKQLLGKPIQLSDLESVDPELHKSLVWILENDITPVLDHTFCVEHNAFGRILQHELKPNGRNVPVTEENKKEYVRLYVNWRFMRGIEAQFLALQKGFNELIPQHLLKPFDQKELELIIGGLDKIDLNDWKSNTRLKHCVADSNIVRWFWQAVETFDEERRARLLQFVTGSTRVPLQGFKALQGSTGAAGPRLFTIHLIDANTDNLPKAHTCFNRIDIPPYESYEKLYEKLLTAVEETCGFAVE

B1: GST-FLCN (natural protein, UniProt Q8NFG4 1-579, looked up)
chain: MNAIVALCHFCELHGPRTLFCTEVLHAPLPQGDGNEDSPGQGEQAEEEEGGIQMNSRMRAHSPAEGASVESSSPGPKKSDMCEGCRSLAAGHPGYISHDKETSIKYVSHQHPSHPQLFSIVRQACVRSLSCEVCPGREGPIFFGDEQHGFVFSHTFFIKDSLARGFQRWYSIITIMMDRIYLINSWPFLLGKVRGIIDELQGKALKVFEAEQFGCPQRAQRMNTAFTPFLHQRNGNAARSLTSLTSDDNLWACLHTSFAWLLKACGSRLTEKLLEGAPTEDTLVQMEKLADLEEESESWDNSEAEEEEKAPVLPESTEGRELTQGPAESSSLSGCGSWQPRKLPVFKSLRHMRQVLGAPSFRMLAWHVLMGNQVIWKSRDVDLVQSAFEVLRTMLPVGCVRIIPYSSQYEEAYRCNFLGLSPHVQIPPHVLSSEFAVIVEVHAAARSTLHPVGCEDDQSLSKYEFVVTSGSPVAADRVGPTILNKIEAALTNQNLSVDVVDQCLVCLKEEWMNKVKVLFKFTKVDSRPKEDTQKLLSILGASEEDNVKLLKFWMTGLSKTYKSHLMSTVRSPTASESRN
notes: FLCN, folliculin; source: E. coli, purified
B1: the binding result is given as “binds”.

B2: GST-TFEB (natural protein, UniProt P19484 1-476, looked up)
chain: MASRIGLRMQLMREQAQQEEQRERMQQQAVMHYMQQQQQQQQQQLGGPPTPAINTPVHFQSPPPVPGEVLKVQSYLENPTSYHLQQSQHQKVREYLSETYGNKFAAHISPAQGSPKPPPAASPGVRAGHVLSSSAGNSAPNSPMAMLHIGSNPERELDDVIDNIMRLDDVLGYINPEMQMPNTLPLSSSHLNVYSSDPQVTASLVGVTSSSCPADLTQKRELTDAESRALAKERQKKDNHNLIERRRRFNINDRIKELGMLIPKANDLDVRWNKGTILKASVDYIRRMQKDLQKSRELENHSRRLEMTNKQLWLRIQELEMQARVHGLPTTSPSGMNMAELAQQVVKQELPSEEGPGEALMLGAEVPDPEPLPALPPQAPLPLPTQPPSPFHHLDFSHSLSFGGREDEGPPGYPEPLAPGHGSPFPSLSKKDLDLMLLDDSLLPLASDPLLSTMSPEASKASSRRSSFSMEEGDVL
notes: TFEB, transcription factor EB; source: E. coli, purified
Take B2: the binding result is “binds”.
